In the supplement of paper PMC10567573:
± gives the standard deviation.

Assay: protein stability index of a GFP-peptide fusion (GPS, HEK-293T) (PSI 1-6); higher = more stable
[1] = treatment: DMSO, c terminus: a fixed tail appended
[2] = treatment: MLN4924 1 uM, 8 h, c terminus: a fixed tail appended
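Also: 24-mer peptide tiles fused after GFP, lentivirally expressed, FACS-sorted into six equal bins by GFP/DsRed ratio, decoded by Illumina sequencing, PSI is the read-weighted mean bin number.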

Sequence | protein stability index [1] | protein stability index [2] | protein stability index (treatment: DMSO, c terminus: native) | protein stability index (treatment: MLN4924 1 uM, 8 h, c terminus: native)
KFADNKWSVTGKAEPAMPGRLYVH [TBX5] | 2.53 ± 0.094 | 2.61 ± 0.27 |  | 
KFLAFSGPHPKSKIENGYPLHAPE [CDC14A] | 3.23 ± 0.15 | 3.16 ± 0.29 |  | 
KFLMARKFDVLRAIELFHSYRETR [PTPN9] | 2.29 ± 0.54 | 2.15 ± 0.15 |  | 
KFSQNSHLIKHRRTHTGEQPYTCS [ZNF75A] | 2.93 ± 0.14 | 3 ± 0.34 |  | 
KGKTAVDTVFRFDPRYNKWMQVAS [KLHL13] | 2.4 ± 0.3 | 2.94 ± 0.5 |  | 
KGLNARMMRGLSYSLTTSSTHKSS [RAB40A] | 3.39 ± 0.28 | 3.52 ± 0.32 |  | 
KGPGAPQYPAGTQGEQLEVPERLL [SPSB2] | 4.93 ± 0.15 | 4.72 ± 0.26 |  | 
KIAQNLDFVNLMAYDFHGSWEKVT [CHIT1] | 2.42 ± 0.35 | 2.18 ± 0.39 |  | 
KKAFLNQAQIELRLLELMNQHDTE [DYRK1B] | 3.05 ± 0.3 | 3.35 ± 0.14 |  | 
KKELEENFEKLRLSLQDQVDTLTF [MTUS2] | 3.94 ± 0.64 | 3.8 ± 0.42 |  | 
KKIFKSHLKSSRNSTSVKKKSSRN [P2RY14] | 3.87 ± 0.32 | 4.22 ± 0.41 |  | 
KKVSEGPPLRLWRSVIEVPAVPEE [DLC1] | 3.37 ± 0.42 | 3.91 ± 0.46 |  | 
KKVSKAAILARIKRTGDGNYKSG [SCD] |  |  | 2.88 ± 1.2 | 3.28 ± 0.21
KLAVFMWLMTYVGAVFNGITLLIL [RTN3] | 2.97 ± 0.23 | 3.21 ± 0.39 |  | 
KLDFKEKAQAKVGSLDNAHHVPGG [MAP2] | 4.73 ± 0.2 | 4.7 ± 0.16 |  | 
KLMKNIRFPLMTPQELINYVQTVD [KLHL13] | 2.87 ± 0.18 | 2.82 ± 0.19 |  | 
KLSPLRLSVSNNQEPDFIDDIEEK [KMT2E] | 4.9 ± 0.24 | 5.06 ± 0.12 |  | 
KLVDAIVSGDTSKLMKILQPQDVD [RIPK4] | 2.51 ± 0.31 | 2.38 ± 0.64 |  | 
KMETMYPFIVTLEGNALQGPILQK [ZNF449] | 2.53 ± 0.24 | 2.48 ± 0.33 |  | 
KMVSAEISENRKRQWPTKSQTDRG [SDE2] | 4.52 ± 0.069 | 4.41 ± 0.2 |  | 
KNNDLVVAVNGESVETLDHDSVVE [PDZK1] | 5.37 ± 0.27 | 5.34 ± 0.14 |  | 
KQDSYEQGDSSQQSLKGHLRNNFQ [ZC2HC1C] | 4.69 ± 0.24 | 4.84 ± 0.11 |  | 
KQDVLGPSTTPPAHSSSNTIRSGI [SASS6] | 4.66 ± 0.34 | 4.63 ± 0.22 |  | 

Sequence | protein stability index [1] | protein stability index [2] | protein stability index (treatment: DMSO, c terminus: native) | protein stability index (treatment: MLN4924 1 uM, 8 h, c terminus: native)
KQESTRPEKKSDQPMCEEHEEERI [TRIM55] | 5.73 ± 0.12 | 5.48 ± 0.26 |  | 
KQLISQTKKKQWCYNCEEEAMYHC [ZMYND11] | 3.1 ± 0.17 | 3.22 ± 0.34 |  | 
KQLLDSKIGFEIGIENEEDTSKQK [ZNF449] | 5.3 ± 0.27 | 5.26 ± 0.3 |  | 
KQNEKLNNQEEETEFKELDGLREA [CCDC89] | 5.51 ± 0.28 | 5.54 ± 0.3 |  | 
KQPDLTMVRKIGCYAAMKKKIYAM [GAN] | 2.28 ± 0.45 | 2.21 ± 0.14 |  | 
KQYDQQFPDGDDEFDSPHEDIVFE [STX11] | 5.18 ± 0.14 | 5.11 ± 0.2 |  | 
KQYVLLSILLCLLASGLVVFFLFP [TMEM106C] | 2.43 ± 0.28 | 2.56 ± 0.44 |  | 
KRCIVILREIPETTPIEEVKGLFK [LARP4] | 2.23 ± 0.46 | 1.93 ± 0.47 |  | 
KRKTFNKVLGHVNNILISAVLPTA [GDAP1] | 2.49 ± 0.14 | 2.42 ± 0.076 |  | 
KRTAQAIEPYITNFFNQVLMLGKT [PDS5B] | 1.95 ± 0.24 | 2.29 ± 0.085 |  | 
KSKHAPRGTHLWEFIRDILIHPEL [ELF3] | 2.6 ± 0.75 | 2.26 ± 0.36 |  | 
KSSILTRAGEQRKRSQSMKSYPSS [CLCN6] | 4.46 ± 0.25 | 4.6 ± 0.18 |  | 
LALGPGESLPHRLSCLGQQQQEPP [PLAGL1] | 4.145 ± 0.038 | 4.23 ± 0.15 |  | 
LALKLPDGSYALNGEYTLMPSPTD [ADAMTS4] | 2.35 ± 0.15 | 2.41 ± 0.28 |  | 
LAQQLCTALLFLATPELSIIHCDL [DYRK1B] | 3.04 ± 0.42 | 3.23 ± 0.42 |  | 
LASLQDGAAESPYGHPAGIDYKTT [RAB40B] | 4.4 ± 0.31 | 4.39 ± 0.15 |  | 
LATFSSDWEIQEDSRLMCSSVQKA [CCDC3] | 4 ± 0.44 | 3.9 ± 0.29 |  | 
LCGENFSHRSNLIRHQRIHTGEKP [ZNF263] | 3.91 ± 0.17 | 3.72 ± 0.22 |  | 
LCSFLLLLLLQVSSSYAGQFRVIG [MOG] | 3.39 ± 0.38 | 3.29 ± 0.29 |  | 
LCSRQDLYPALKGVNTVFHCASPP [NSDHL] | 2.66 ± 0.32 | 2.79 ± 0.25 |  | 
LDFCDFTAEMARVLTDSNHVPLQR [FBXO33] | 3.07 ± 0.46 | 3.26 ± 0.34 |  | 
LDFKDLLESEDWEEDNWDPELMEH [TEX19] | 4.86 ± 0.091 | 4.94 ± 0.26 |  | 
LDGAGLMGFVPHNGSLYGQASSER [ADAMTSL2] | 4.32 ± 0.67 | 3.58 ± 0.95 |  | 

Sequence | protein stability index [1] | protein stability index [2] | protein stability index (treatment: DMSO, c terminus: native) | protein stability index (treatment: MLN4924 1 uM, 8 h, c terminus: native)
LDGKKKGVEPSPSPIKPGDIKRGI [UFD1] | 4.92 ± 0.24 | 4.92 ± 0.25 |  | 
LDLFAMKPPETSVPVVTPTASTAP [SNAP91] | 4.25 ± 0.28 | 4.48 ± 0.22 |  | 
LDVFGRGDNISDVSKFLEDDKWME [LUC7L3] | 4.72 ± 0.27 | 4.37 ± 0.14 |  | 
LDVIERDLHRQFPFHEMFVSRGGH [TBC1D10A] | 2.98 ± 0.3 | 2.86 ± 0.21 |  | 
LEASNYQMMPYMQPVMQSDRTAIR [KLHL13] | 3.9 ± 0.38 | 4.17 ± 0.25 |  | 
LEEMILPLMVASAQSGERECHIVV [BTBD10] | 2.35 ± 0.79 | 2.48 ± 0.48 |  | 
LEGSHDTANCEACTLGICGQGLKS [RTP4] | 5.13 ± 0.25 | 5.11 ± 0.12 |  | 
LEKEREKEISDDEAEEEKGEKEEE [HSP90AB1] | 5.66 ± 0.34 | 5.74 ± 0.21 |  | 
LERKCEKRSVYIDARDEELEKDTM [ZC3H15] | 4.93 ± 0.49 | 4.9 ± 0.075 |  | 
LGALKPLPACEFEMGGSEGIVESI [NETO1] | 4.28 ± 0.2 | 4.31 ± 0.25 |  | 
LGFGSAKEAVTGSRLGQGIGPIHL [LOXL2] | 2.7 ± 0.26 | 2.64 ± 0.073 |  | 
LGSIFQQLAHMVKEQEETIQRIDE [STX5] | 4.48 ± 0.2 | 4.26 ± 0.098 |  | 
LGSPQHSPSTRGSPNRSLPSPGVL [ATF4] | 4.45 ± 0.23 | 4.45 ± 0.22 |  | 
LGVAVAVLGGFLYAVGGSDGTSPL [KLHL20] | 2.86 ± 0.64 | 2.85 ± 0.51 |  | 
LGWGPTALRDVPFSALYWFNYELV [SLC25A39] | 2.9 ± 0.54 | 2.61 ± 0.41 |  | 
LHTDVGSVRMRRAEKSVAPSNTGS [NEK8] | 4.58 ± 0.22 | 4.73 ± 0.14 |  | 
LIDHLALRARNYEYLIRLFQEWEA [TCF25] | 2.1 ± 0.27 | 2.43 ± 0.36 |  | 
LIKFQVGLKKLNLHEEEHVLLMAI [VDR] | 2.8 ± 0.62 | 2.73 ± 0.78 |  | 
LIKNNSLPRKRQSLRSSSSKLAQL [INTS3] | 2.99 ± 0.27 | 3.31 ± 0.17 |  | 
LIYMVTIMGNLLIIVTIMASQSLG [OR4A15] | 3.18 ± 0.43 | 3.1 ± 0.29 |  | 
LKAHAEEKPPSGTKEKKHQCDHCE [PLAGL1] | 5.38 ± 0.22 | 5.46 ± 0.098 |  | 
LKELQAIAERLGCTLPQLAIAWCL [KCNAB2] | 2.29 ± 0.74 | 2.27 ± 0.25 |  | 
LLDFMCRIIPNFYPPLEGHVRQGV [INTS3] | 3.31 ± 0.42 | 2.84 ± 0.41 |  | 

Sequence | protein stability index [1] | protein stability index [2] | protein stability index (treatment: DMSO, c terminus: native) | protein stability index (treatment: MLN4924 1 uM, 8 h, c terminus: native)
LLDKTCDQVMEFSWSALWNITDET [ZER1] | 2.37 ± 0.28 | 2.35 ± 0.34 |  | 
LLFKLVAPVTFRHHRYDDLVRTLY [CPN1] | 2.65 ± 0.63 | 2.83 ± 0.56 |  | 
LLKTPWRAASAMQFFTKGYQETIS [GCH1] | 2.19 ± 0.28 | 2.44 ± 0.18 |  | 
LLLVAKMSVGHLRLLSHDQVAMPY [JAGN1] | 3.06 ± 0.46 | 2.81 ± 0.21 |  | 
LLNQQSLKRSANQMGVSAKRRPKA [MED27] | 3.47 ± 0.3 | 3.82 ± 0.24 |  | 
LLPDQARGEVPWSPELGRPHDRSQ [ZNF263] | 4.58 ± 0.17 | 4.86 ± 0.091 |  | 
LLRPPVAAFVRAQADLLAHLVPEP [DNAAF3] | 2.23 ± 0.31 | 2.33 ± 0.31 |  | 
LMDYIGINLATMNSCINPIALYFV [EDNRA] |  | 3.08 ± 0.24 |  | 
LMIIVCIDQWKNKIWPEIKVPRPD [RETREG3] | 2.81 ± 0.43 | 2.82 ± 0.45 |  | 
LMVHGNERFIQYLASRNTLFNLSN [SNAP91] | 2.67 ± 0.54 | 2.3 ± 0.7 |  | 
LNWKMTLCLLVAWSIVGMAVVKGI [SLC6A17] | 2.61 ± 0.67 | 2.45 ± 0.48 |  | 
LPDLCLCRVFWWLGDRDRSRAALV [FBXO39] | 2.5 ± 0.51 | 2.76 ± 0.7 |  | 
LPETLNSPLLETFSDLQVYSYRRL [SLC22A15] | 2.4 ± 0.1 | 2.81 ± 0.27 |  | 
LPHGVNFQDAIFPDTQENRRMFSS [CCDC3] | 3.91 ± 0.18 | 3.92 ± 0.097 |  | 
LPLALVTWVPMFLSTLLAPYQALR [SOAT2] | 2.93 ± 0.6 | 2.95 ± 0.35 |  | 
LPPKVGSFQLFVEGYKDADYWLRR [PI4K2A] | 2.41 ± 0.34 | 2.46 ± 0.17 |  | 
LPSNLLKKFRSSTSSSLGDKSEYL [KCNA4] | 3.11 ± 0.084 | 3.23 ± 0.37 |  | 
LPSVPVSVPASDPRSCSSGPAGPY [PLEKHN1] | 4.35 ± 0.21 | 4.39 ± 0.17 |  | 
LPTDAVDCMSRELVSLTSRNPDQR [FBXO34] | 4.85 ± 0.25 | 4.9 ± 0.17 |  | 
LQCRSPPRLHGAKAILDAEPGPRP [TBC1D10A] | 4.46 ± 0.12 | 4.48 ± 0.12 |  | 
